To fix the notation:
B1: 26S proteasome regulatory subunit RPN10 (Saccharomyces cerevisiae), P38886 (parent)
chain: MVLEATVLVIDNSEYSRNGDFPRTRFEAQIDSVEFIFQAKRNSNPENTVGLISGAGANPRVLSTFTAEFGKILAGLHDTQIEGKLHMATALQIAQLTLKHRQNKVQHQRIVAFVCSPISDSRDELIRLAKTLKKNNVAVDIINFGEIEQNTELLDEFIAAVNNPQEETSHLLTVTPGPRLLYENIASSPIILEEGSSGMGAFGGSGGDSDANGTFMDFGVDPSMDPELAMALRLSMEEEQQRQERLRQQQQQQDQPEQSEQPEQHQDK
partner: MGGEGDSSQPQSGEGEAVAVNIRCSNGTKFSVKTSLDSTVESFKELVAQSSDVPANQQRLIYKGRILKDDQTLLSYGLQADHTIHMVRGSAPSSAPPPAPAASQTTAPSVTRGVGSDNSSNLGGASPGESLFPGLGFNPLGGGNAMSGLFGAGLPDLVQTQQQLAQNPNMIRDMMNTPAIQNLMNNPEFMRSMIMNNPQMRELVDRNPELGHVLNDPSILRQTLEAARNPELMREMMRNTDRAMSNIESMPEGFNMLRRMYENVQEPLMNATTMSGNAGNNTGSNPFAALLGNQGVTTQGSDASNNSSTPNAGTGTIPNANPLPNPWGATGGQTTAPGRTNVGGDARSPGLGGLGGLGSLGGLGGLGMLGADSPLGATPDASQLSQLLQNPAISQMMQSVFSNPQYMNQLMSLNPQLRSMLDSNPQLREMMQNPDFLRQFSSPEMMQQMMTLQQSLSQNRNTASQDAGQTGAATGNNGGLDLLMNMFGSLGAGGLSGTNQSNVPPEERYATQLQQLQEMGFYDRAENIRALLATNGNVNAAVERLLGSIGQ
B2: 26S proteasome non-ATPase regulatory subunit 4 homolog (Arabidopsis thaliana (Mouse-ear cress)), P55034 (parent)
chain: MVLEATMICIDNSEWMRNGDYSPSRLQAQTEAVNLLCGAKTQSNPENTVGILTMAGKGVRVLTTPTSDLGKILACMHGLDVGGEINLTAAIQIAQLALKHRQNKNQRQRIIVFAGSPIKYEKKALEIVGKRLKKNSVSLDIVNFGEDDDEEKPQKLEALLTAVNNNDGSHIVHVPSGANALSDVLLSTPVFTGDEGASGYVSAAAAAAAAGGDFDFGVDPNIDPELALALRVSMEEERARQEAAAKKAADEAGQKDKDGDTASASQETVARTTDKNAEPMDEDSALLDQAIAMSVGDVNMSEAADEDQDLALALQMSMSGEESSEATGAGNNLLGNQAFISSVLSSLPGVDPNDPAVKELLASLPDESKRTEEEESSSKKGEDEKK
partner: B1 partner
B3: 26S proteasome non-ATPase regulatory subunit 4 (Homo sapiens), P55036 (parent)
chain: MVLESTMVCVDNSEYMRNGDFLPTRLQAQQDAVNIVCHSKTRSNPENNVGLITLANDCEVLTTLTPDTGRILSKLHTVQPKGKITFCTGIRVAHLALKHRQGKNHKMRIIAFVGSPVEDNEKDLVKLAKRLKKEKVNVDIINFGEEEVNTEKLTAFVNTLNGKDGTGSHLVTVPPGPSLADALISSPILAGEGGAMLGLGASDFEFGVDPSADPELALALRVSMEEQRQRQEEEARRAAAASAAEAGIATTGTEDSDDALLKMTISQQEFGRTGLPDLSSMTEEEQIAYAMQMSLQGAEFGQAESADIDASSAMDTSEPAKEEDDYDVMQDPEFLQSVLENLPGVDPNNEAIRNAMGSLASQATKDGKKDKKEEDKK
partner: B1 partner
B4: 26S proteasome non-ATPase regulatory subunit 4 (Homo sapiens), P55036 (parent)
chain: B3 chain
partner: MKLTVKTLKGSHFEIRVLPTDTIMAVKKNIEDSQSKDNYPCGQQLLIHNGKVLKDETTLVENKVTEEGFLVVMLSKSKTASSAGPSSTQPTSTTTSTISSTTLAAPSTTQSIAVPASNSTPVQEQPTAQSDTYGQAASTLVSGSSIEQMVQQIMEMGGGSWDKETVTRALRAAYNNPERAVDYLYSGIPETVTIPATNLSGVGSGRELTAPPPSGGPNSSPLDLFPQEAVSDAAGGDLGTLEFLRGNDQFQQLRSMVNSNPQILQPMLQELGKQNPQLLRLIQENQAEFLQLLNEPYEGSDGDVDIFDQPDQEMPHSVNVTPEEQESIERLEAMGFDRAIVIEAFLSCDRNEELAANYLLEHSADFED
B5: 26S proteasome regulatory subunit RPN10 (Saccharomyces cerevisiae), P38886 (parent)
chain: B1 chain
partner: B4 partner

Data on twelve variants can be found in IntAct's records for PubMed 20059542.

In one assay the parent is B1. The conditions noted are these: with dsk2b_arath DSK2B.
For L228N;A229N;M230N;A231N;L232N, the “effect of a mutation on the interaction” value is on record as “disrupting interaction strength”.

Variants of B2 are the subject of a further assay. The note with it: with dsk2b_arath DSK2B.
With L286N;L287N;Q289N;A290D, the “effect of a mutation on the interaction” value is recorded as “with no effect”. For L286N;L287N;Q289N;A290D;L310N;A311N;L312N;A313D;L314N, the “effect of a mutation on the interaction” value is on record as “with no effect”. On to L226D;A227D;L228D;A229D;L230D, for which the “effect of a mutation on the interaction” value is “disrupting interaction strength”.

On to L310N;A311N;L312N;A313D;L314N, for which the “effect of a mutation on the interaction” value is given as “with no effect”.

The next assay covers variants of B3. The conditions noted are these: with dsk2b_arath DSK2B.
Consider L216N;A217N;L218N;A219N;L220N;I287N;A288N;Y289N;A290N;M291N, for which the “effect of a mutation on the interaction” value is given as “disrupting interaction strength”. Same read-out and setting: next, L216N;A217N;L218N;A219N;L220N: “with no effect”. On the same count and under the same terms, under I287N;A288N;Y289N;A290N;M291N stands “disrupting interaction strength”.

Variants of B4 are the subject of another assay. The note with it: with rd23a_arath RAD23A.
On to I287N;A288N;Y289N;A290N;M291N, for which the “effect of a mutation on the interaction” value is reported as “disrupting interaction strength”.

For the variant L216N;A217N;L218N;A219N;L220N, the “effect of a mutation on the interaction” value is on record as “with no effect”. On the same count and under the same terms, under L216N;A217N;L218N;A219N;L220N;I287N;A288N;Y289N;A290N;M291N stands “disrupting interaction strength”.

The variants in the next assay derive from B5. The note with it: with rd23a_arath RAD23A.
Take L228N;A229N;M230N;A231N;L232N: the “effect of a mutation on the interaction” value was “disrupting interaction strength”.
